Positions count from the first letter of the chain named. Several values for one entry are separate records, joined by “and”; a condition that tells them apart may be missing. Equal values may be shown once.
What was measured:
[1] = biological target: T1, Mouse Fc-human GDF15 (Mu IgG1Fc_Fxa_Hu GDF15) (human); assay: SPR BIAcore T200, 37C; Fc-GDF15 captured, monomeric Fc-Fab as analyte; human GDF15 ligand (Mu IgG1Fc_Fxa_Hu GDF15), second run
T1 construct: Whole entry is the fusion: mouse IgG1 Fc, FXa site and linker, mature human GDF15; described as dimeric; also called Murine dimeric IgG1 Fc-human GDF-15 with FXa cleavage site; control human GDF15
T1 chain: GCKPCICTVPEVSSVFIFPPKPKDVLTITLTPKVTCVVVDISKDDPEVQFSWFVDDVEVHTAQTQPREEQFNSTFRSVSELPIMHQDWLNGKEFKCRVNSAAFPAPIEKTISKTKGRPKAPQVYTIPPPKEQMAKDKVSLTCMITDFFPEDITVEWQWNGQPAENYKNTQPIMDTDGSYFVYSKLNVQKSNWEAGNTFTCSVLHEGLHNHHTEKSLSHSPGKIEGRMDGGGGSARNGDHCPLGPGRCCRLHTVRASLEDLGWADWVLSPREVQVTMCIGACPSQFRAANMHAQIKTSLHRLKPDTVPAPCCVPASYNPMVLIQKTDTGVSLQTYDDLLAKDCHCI
Excerpt: (§1) To understand the KD value, without the avidity effect, of GDF15_001 binding to GDF15, monomeric Fc-Fab was produced and tested in the same assay used in Example 2. […] Mu IgG1Fc_Fxa_Hu GDF15, Mu IgG1Fc_Fxa_Mu GDF15 and Mu IgG1Fc_Fxa_Cyno GDF15 were captured onto three different flow cells of a CM4 sensorchip (catalogue number BR100534, GE Healthcare) surface using the Mouse Antibody Capture Kit (BR100838, GE Healthcare) according to the manufacturer's protocol. The running and sample buffer was 10 mM HEPES pH 7.4, 0.15M NaCl, 3 mM EDTA, 0.05% P-20 (HBS-EP+). The final capture levels of Mu IgG1Fc_Fxa_Hu GDF15, Mu IgG1Fc_Fxa_Mu GDF15 and Mu IgG1Fc_Fxa_Cyno GDF15 were 19 resonance units (RU), 22 RU and 19 RU respectively. Flow cell 1 was used as a reference flow cell. […] The dissociation was monitored for 1200 seconds and the surface was regenerated with 10 mM Glycine pH 1.7. Binding affinities and rate constants were determined by fitting the resulting sensorgram data to a 1:1 Langmuir model in BIAcore T200 Evaluation software version 2.0 (GE Healthcare).

[2] = biological target: Mouse Fc-mouse GDF15 (Mu IgG1Fc_Fxa_Mu GDF15) (mouse); assay: SPR BIAcore T200, 37C; Fc-GDF15 captured, monomeric Fc-Fab as analyte
[3] = biological target: Mouse Fc-mouse GDF15 (Mu IgG1Fc_Fxa_Mu GDF15) (mouse); assay: SPR BIAcore T200, 37C; Fc-GDF15 captured, monomeric Fc-Fab as analyte; average of runs
[4] = biological target: T2, human GDF8 (human, UniProt O14793 267-375, limits assumed); assay: BLI, OctetRED 384; family member amine coupled to AR2G biosensor
T2 construct: In-house material
T2 sequence (looked up): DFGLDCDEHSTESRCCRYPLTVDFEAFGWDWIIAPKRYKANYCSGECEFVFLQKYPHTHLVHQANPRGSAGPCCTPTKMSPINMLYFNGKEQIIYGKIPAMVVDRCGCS
Protocol: (§2) To assess the binding specificity of GDF15_001 to human GDF15, GDF15_001 binding to additional TGFB family members was tested. Analysis was carried out on an Octet Red instrument.
(§3) The TGFB family members were diluted to 10 ug/ml in 10 mM Sodium Acetate pH 4.5 and amine coupled onto AR2G biosensors (catalogue #18-5092, ForteBio) according to the manufacturer's instructions. Monomeric GDF15_001 was diluted to 200 nM in kinetics buffer (catalogue #18-5032 ForteBio). Octet assays were conducted at room temperature with an association time of 300 seconds and a dissociation time of 180 seconds. The data was double referenced (Myszka, D., J. Mol. Recognit 1999; 279-284) and analyzed with Octet Data Analysis software version 8.1 (ForteBio).

[5] = biological target: T3, human Activin B (human, UniProt P09529 293-407); assay: as above
T3 construct: Bought
T3 sequence (looked up): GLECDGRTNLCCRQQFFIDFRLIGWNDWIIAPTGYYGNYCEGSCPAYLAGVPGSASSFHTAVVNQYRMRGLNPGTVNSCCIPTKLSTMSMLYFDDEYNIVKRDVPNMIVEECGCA
Protocol: as §2, §3

[6] = biological target: T4, Mouse Fc-cynomolgus monkey GDF15 (Mu IgG1Fc_Fxa_Cyno GDF15) (cynomolgus monkey); assay: SPR BIAcore T200, 37C; Fc-GDF15 captured, monomeric Fc-Fab as analyte
T4 construct: Whole entry is the fusion: mouse IgG1 Fc, FXa site and linker, cynomolgus GDF15; described as dimeric; also called Murine dimeric IgG1 Fc-cyno GDF-15 with FXa cleavage site
T4 chain: T1 chain with H239R, R254H, A287E, T296M, S297N, I345V
Excerpt: as §1

[7] = biological target: T1, Mouse Fc-human GDF15 (Mu IgG1Fc_Fxa_Hu …); assay: as above
Excerpt: as §1

[8] = biological target: T1, Mouse Fc-human GDF15 (Mu IgG1Fc_Fxa_Hu …); assay: SPR BIAcore T200, 37C; Fc-GDF15 captured, monomeric Fc-Fab as analyte; human GDF15 ligand (Mu IgG1Fc_Fxa_Hu GDF15), first run
Excerpt: as §1

Kd [1]: 0.0276 nM
T½ min [2]: 3.39 min and 3.73 min
koff [2]: 0.00341 s⁻¹ and 0.0031 s⁻¹
kon [2]: 1.62e+06 M⁻¹ s⁻¹ and 1.7e+06 M⁻¹ s⁻¹
Kd [3]: 1.97 nM
koff [3]: 0.00326 s⁻¹
kon [3]: 1.66e+06 M⁻¹ s⁻¹
binding result [4]: no binding (tested: 200 nM)
binding result [5]: no binding (tested: 200 nM)
Kd [6]: 0.0458 nM and 0.0782 nM
T½ min [6]: 154 min and 123 min
koff [6]: 7.48e-05 s⁻¹ and 9.39e-05 s⁻¹
kon [6]: 1.63e+06 M⁻¹ s⁻¹ and 1.2e+06 M⁻¹ s⁻¹
T½ min [7]: 513 min and 252 min
koff [7]: 2.25e-05 s⁻¹ and 4.58e-05 s⁻¹
kon [7]: 1.52e+06 M⁻¹ s⁻¹ and 1.66e+06 M⁻¹ s⁻¹
Kd [8]: 0.0149 nM
B1: monomeric GDF15_001 (CH23LS-GBT-GDF15_001) (Fab, V domains shown)
VH: QVQLVQSGAEVKKPGSSVKVSCKASGYTFSSYNIDWVRQAPGQGLEWMGGINPIFGTAFYNQKFQGRVTITADESTSTAYMELSSLRSEDTAVYYCAREAITTVGAMDHWGQGTLVTVSS
VL: EIVLTQSPATLSLSPGERATLSCRTSQSVHNYLAWYQQKPGQAPRLLIYDASTRADGIPARFSGSGSGTDFTLTISSLEPEDFAVYYCQQFWSWPWTFGQGTKVEIK
notes: Monovalent 'monomeric Fc-Fab' of GDF15_001 made to measure KD without avidity; also called CH23LS-GDF15_001; monomeric Fc-Fab

Source: patent US20260159579A1 (Pfizer, published 2026)
